± gives the standard deviation.
Test: protein stability index of a GFP-peptide fusion (GPS, HEK-293T) (PSI 1-6); higher = more stable
[1] = treatment: DMSO, c terminus: a fixed tail appended
[2] = treatment: MLN4924 1 uM, 8 h, c terminus: a fixed tail appended
[3] = treatment: DMSO, c terminus: native
[4] = treatment: MLN4924 1 uM, 8 h, c terminus: native
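Further: 24-mer peptide tiles fused after GFP, lentivirally expressed, FACS-sorted into six equal bins by GFP/DsRed ratio, decoded by Illumina sequencing, PSI is the read-weighted mean bin number.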

Row | Sequence | protein stability index [1] | protein stability index [2] | protein stability index [3] | protein stability index [4]
1 | CHSESGKSRLVQLPPVAVRSLQDL [PCMTD2] | 3.44 ± 0.33 | 3.28 ± 0.28 | – | –
2 | CKKLHIPLKAQNDLDISRIKRGNT [P2RY14] | 3.44 ± 0.33 | 3.65 ± 0.14 | – | –
3 | CLDTIDKSTMDAISAEGFTDIDID [BTBD1] | 4.88 ± 0.19 | 4.82 ± 0.22 | – | –
4 | CMWSKKCSGVACLVKDNPQRSYFL [WASL] | 2.26 ± 0.29 | 2.04 ± 0.27 | – | –
5 | CPEVKLKTTGLEEAAEAETAKDNG [SRPK2] | 5.5 ± 0.27 | 5.49 ± 0.26 | – | –
6 | CQRERAFSVKFEVQAPRWGNPRAL [OAS1] | 2.46 ± 0.12 | 2.8 ± 0.27 | – | –
7 | CRALRDPALDSLAYEYEREGLYEQ [TRADD] | 3.73 ± 0.34 | 3.63 ± 0.18 | – | –
8 | CRREAFRRLGNGVSDDLSSEEDGE [PHTF1] | 4.94 ± 0.19 | 4.77 ± 0.13 | – | –
9 | CSQHWGGMASFRFPETTFISVTAY [TBX6] | 3.18 ± 0.6 | 2.85 ± 0.47 | – | –
10 | CTACGSVLEDNIIVSEVQFVESSG [BRF1] | 3.42 ± 0.57 | 3.74 ± 0.35 | – | –
11 | CTLGICGQGLKSYMTKPSKSLLPH [RTP4] | 2.2 ± 0.3 | 2.21 ± 0.35 | – | –
12 | CVLRCSVLEIEQSMNRVKNISDAD [FEM1B] | 2.58 ± 0.37 | 2.83 ± 0.24 | – | –
13 | CWLNAFAEMLRFGDRMFYRDWWNS [SOAT2] | 2.47 ± 0.4 | 2.91 ± 0.16 | – | –
14 | CYSEEITVCGDLHGQLDDLIFIFY [PPEF2] | 2.96 ± 0.43 | 2.65 ± 0.46 | – | –
15 | CYYCQAYVHHQALLDVKNIAHQNK [HDAC6] | 2.61 ± 0.33 | 2.33 ± 0.48 | – | –
16 | DAAGHGFCYCAGSHKRKRSSGSFC [GMCL1] | 3.08 ± 0.22 | 3.35 ± 0.15 | – | –
17 | DAEVSCTDNGTFNLSRGQTPLTEG [RETREG3] | 5.2 ± 0.25 | 5.32 ± 0.1 | – | –
18 | DDGIKVVKVTFNKQDSLVILTIMA [TMEM106C] | 2.71 ± 1 | 3.11 ± 1 | – | –
19 | DDIARIYQPKRYALSPKTTITMAH [FAM98B] | 2.77 ± 0.21 | 2.92 ± 0.17 | – | –
20 | DDPENKKTSSSSKAGFTASPFTNL [CDC14A] | 4.92 ± 0.27 | 4.95 ± 0.14 | – | –
21 | DDSGGPTPSSYAPSHPPRPLLPLD [ZBTB22] | 4.54 ± 0.25 | 4.79 ± 0.22 | – | –
22 | DEEERRRRVFDVPIRRRRCSRLF [FBXO3] | – | – | 3.32 ± 0.61 | 3.73 ± 0.82
23 | DEIEEVPTTSHRLSRHDKAVQRFC [NETO1] | 4.78 ± 0.18 | 4.68 ± 0.1 | – | –

Row | Sequence | protein stability index [1] | protein stability index [2] | protein stability index [3] | protein stability index [4]
24 | DENEDVNFDHFEILRAIGKGSFGK [STK32A] | 4.22 ± 0.18 | 4.14 ± 0.17 | – | –
25 | DFGLAIEVQGDQQAWFGFAGTPGY [CAMK2B] | 2.26 ± 0.35 | 2.15 ± 0.3 | – | –
26 | DFIDCVREKGGKVLVHCEAGISRS [DUSP5] | 2.77 ± 0.2 | 2.79 ± 0.41 | – | –
27 | DGASQDCPPLPAGVSFHIDSAELE [FBXO34] | 5.39 ± 0.14 | 5.4 ± 0.16 | – | –
28 | DGLREALANLRGLSEEERSEKAML [CCDC89] | 4.93 ± 0.22 | 4.51 ± 0.44 | – | –
29 | DGSGMPKTMQSEETRVWHRRDGKW [CAMK2D] | 4.49 ± 0.35 | 4.59 ± 0.095 | – | –
30 | DHGCEQLCLNTEDSFVCQCSEGFL [MATN2] | 4.18 ± 0.21 | 4.06 ± 0.3 | – | –
31 | DIKKVNNFIREQDLYALKSVKIPV [LYSMD4] | 2.38 ± 0.15 | 2.53 ± 0.4 | – | –
32 | DKENGENVGLESKYLKKREDSIPL [SASS6] | 5.03 ± 0.18 | 4.76 ± 0.24 | – | –
33 | DLEAQMESLKEELLSLKQNHEQEV [KRT33B] | 4.95 ± 0.32 | 4.96 ± 0.22 | – | –
34 | DLMKRLRFALIPAPELVERVQSVD [KLHL14] | 2.16 ± 0.14 | 2.3 ± 0.21 | – | –
35 | DLVKKIRDFHRKILTLPEMMRMFS [TRIM15] | 2.45 ± 0.46 | 2.35 ± 0.19 | – | –
36 | DPLSPMTASSLLSFAELFSFMLQD [FEM1C] | 2.71 ± 0.49 | 2.42 ± 0.51 | – | –
37 | DQEAVCLICAISHTHRAHTVVPLD [TRIM39] | 2.22 ± 0.21 | 2.19 ± 0.35 | – | –
38 | DRADYYLEEFKENAYKDLAWKHGN [PCMTD2] | 3.75 ± 0.084 | 3.07 ± 0.77 | – | –
39 | DREEEAIHHLVLTASDGGDPLRSG [PCDHGA10] | 5.02 ± 0.2 | 5.08 ± 0.11 | – | –
40 | DRTFTLKTVLMIAIQLLSRMEYVH [CSNK1G1] | 3.15 ± 0.067 | 2.65 ± 1.1 | – | –
41 | DTSFLPDRDREEEENRLREELRQE [FAM50A] | 5.17 ± 0.31 | 5.41 ± 0.18 | – | –
42 | DVAEGYRKLSLKGHNDWVMDVAIS [WDR88] | 2.47 ± 0.31 | 2.69 ± 0.5 | – | –
43 | DVAISANIADIEEKRGFTSHFVFV [NCF4] | 2.23 ± 0.6 | 2.55 ± 0.47 | – | –
44 | DVMLVECYDPKGDQWNILQTPILE [KLHL14] | 2.55 ± 0.36 | 2.64 ± 0.38 | – | –
45 | DVPNRLVDNIDMIDGDGDDMERFM [BEX5] | 4.98 ± 0.18 | 5.06 ± 0.21 | – | –
46 | DVPVIPLDVVDNQTEKLDTNITEV [CASP6] | 5.19 ± 0.067 | 5.14 ± 0.3 | – | –

Row | Sequence | protein stability index [1] | protein stability index [2] | protein stability index [3] | protein stability index [4]
47 | EAAGVVVEEELFHQQGTPRASNRS [LMNB1] | 5.31 ± 0.41 | 5.47 ± 0.14 | – | –
48 | EAFKNILTEIYRIVSQKQIADRAA [RAB11B] | 2.81 ± 0.4 | 2.81 ± 0.49 | – | –
49 | EALNERHSIINALKAKLQMTEAAL [LRRC45] | 2.66 ± 0.2 | 2.91 ± 0.3 | – | –
50 | EAPALGGGEYQEPGGNVKGVWAPP [BEX5] | 4.57 ± 0.37 | 4.71 ± 0.14 | – | –
51 | EARICRLLKHPNIVRLHDSISEEG [CAMK2D] | 3.56 ± 0.47 | 3.34 ± 0.28 | – | –
52 | EAVKYYTLEEIQKHNHSKSTWLIL [CYB5A] | 2.44 ± 0.65 | 2.3 ± 0.24 | – | –
53 | EAVSDSTPFLTNHGAHKAEKKLFE [ZNF263] | 4.65 ± 0.5 | 4.42 ± 0.41 | – | –
54 | ECAKAFSRSAILIQHRRTHTDSKY [ZNF396] | 2.55 ± 0.21 | 2.67 ± 0.21 | – | –
55 | ECGHNFCKACITRWWEDLERDFPC [TRIM39] | 2.97 ± 0.49 | 3.01 ± 0.7 | – | –
56 | EDDSMSVIEPVVENSGILQGKLIK [EFHC1] | 4.89 ± 0.45 | 5.45 ± 0.25 | – | –
57 | EDEEEEEGENYQKGERGEDSSEEK [CHGB] | 5.622 ± 0.029 | 5.66 ± 0.21 | – | –
58 | EDHKPGTFPKALTNGSFSPSGNNG [DLC1] | 4.89 ± 0.11 | 4.91 ± 0.37 | – | –
59 | EDLEATSEHFKTTSQKVARKFWWK [VAMP8] | 4 ± 0.18 | 3.82 ± 0.25 | – | –
60 | EDNLEDDDVEMKNGITQGDKLRAL [CDC14A] | 5.44 ± 0.26 | 5.38 ± 0.12 | – | –
61 | EDRVKLFGIEIEVTDINDNAPKFQ [PCDHGA10] | 3.35 ± 0.43 | 3.52 ± 0.46 | – | –
62 | EDTKPKPTKRKRKGSSAVGSDSD [INTS3] | – | – | 5.45 ± 0.25 | 5.4 ± 0.33
63 | EEAEGARWTSYRFSRVCRLHRGQL [TRIM35] | 2.91 ± 0.23 | 3 ± 0.08 | – | –
64 | EEKIQVLQQQNEDLKARIDQNTVV [MTUS2] | 5.28 ± 0.24 | 5.28 ± 0.069 | – | –
65 | EELLYDYGDRSKASIEAHPWLKH [KMT5A] | – | – | 4.9 ± 0.39 | 4.83 ± 0.28
66 | EELVARSETHAAGHSQEKTHSREK [CHGB] | 5.66 ± 0.28 | 5.47 ± 0.5 | – | –
67 | EEPCSPGLLQDQGSGLSSRFEEPK [CBY2] | 5.4 ± 0.19 | 5.29 ± 0.34 | – | –
68 | EESTPGQTNSETAVVALTQDQPSE [HDAC6] | 5.49 ± 0.22 | 5.59 ± 0.34 | – | –
69 | EEYPGITAEDSNDIYILPSDNSGQ [BCL2L13] | 5.25 ± 0.18 | 5.14 ± 0.21 | – | –

Row | Sequence | protein stability index [1] | protein stability index [2] | protein stability index [3] | protein stability index [4]
70 | EFDYLKSLEIEEKINKIRWLPQQN [PPP2R2B] | 2.62 ± 0.21 | 2.9 ± 0.42 | – | –
71 | EFFLEQTKKKGVKRPARLHTKPSQ [NOP53] | 3.66 ± 0.55 | 3.68 ± 0.5 | – | –
72 | EGDVCGVEPPGPGDTVVQGDLQET [PBXIP1] | 5.57 ± 0.28 | 5.64 ± 0.19 | – | –
73 | EGLNSSLCSPGHERRGTPADTEEP [PSD2] | 5.39 ± 0.37 | 5.53 ± 0.19 | – | –
74 | EGLRELQRSRRLCHEDVEALAAIY [DAPK3] | 2.72 ± 0.74 | – | – | –
75 | EGNALQGPILQKDYVQLENQWETP [ZNF449] | 4.86 ± 0.13 | 4.68 ± 0.23 | – | –
76 | EGRGPVTPLHLDLTQLHRLSLESS [PLEKHN1] | 3.4 ± 0.31 | 3.28 ± 0.22 | – | –
77 | EHACTVRNLARSQSVKMKDKLKID [TAF7L] | 4.75 ± 0.18 | 4.81 ± 0.2 | – | –
78 | EHPPEVSRETQRTPMNHQKAVNDE [FBXO34] | 5.29 ± 0.21 | 5.41 ± 0.075 | – | –
79 | EIDCVDKDGNTPLHVAARYGHELL [ANKRD44] | 4.05 ± 0.26 | 4.05 ± 0.19 | – | –
80 | EIEQLLARLTGVNDKMAEYTNSAG [GOSR1] | 2.29 ± 0.24 | 2.46 ± 0.45 | – | –
81 | EIETWVREHCPENRERVVSLIEDL [ZNF449] | 3.9 ± 0.2 | 4.01 ± 0.29 | – | –
82 | EIFRQRFRQFGYQDSPGPREAVSQ [ZNF24] | 2.7 ± 0.21 | 3.25 ± 0.082 | – | –
83 | EIILYWKHSTIFDVGENLTVPDEF [SLC25A25] | 2.23 ± 0.85 | 2.1 ± 0.39 | – | –
84 | EILPFLYLGSAYHASKCEFLANLH [DUSP5] | 2.94 ± 0.5 | 2.92 ± 0.75 | – | –
85 | EILTLLQGVHQGAGFQDIPKRCLK [TSN] | 2.08 ± 0.3 | 2.41 ± 0.49 | – | –
86 | EIPDQNIDVEALQVAFGSLYRDDV [GMCL1] | 4.58 ± 0.32 | 4.64 ± 0.094 | – | –
87 | EIRMWQTREKAKFSDGEKCRREAF [PHTF1] | 2.98 ± 0.14 | 3.1 ± 0.31 | – | –
88 | EKERRKKQQWEIMHKHNETSQKIA [RSPH3] | 4.44 ± 0.42 | 4.91 ± 0.26 | – | –
89 | EKLCSISLSHINAYACLVCGKYFQ [USP39] | 2.67 ± 0.56 | 2.61 ± 0.58 | – | –
